Measured values as given in patent US11547761B1, “Antibody adjuvant conjugates” (The Board of Trustees of the Leland Stanford Junior …, priority 2016, dated 2023).

Test system: human APCs (myeloid cells)
Experiment: APC-tumor co-culture / myeloid cell stimulation, surface markers by flow cytometry
Assay type: cell-based
Details: 18 hours of stimulation
Text: Human antigen presenting cells (APCs) were negatively selected from human peripheral blood mononuclear cells obtained from healthy blood donors (Stanford Blood Center) by density gradient centrifugation using a RosetteSep Human Monocyte Enrichment Cocktail (Stem Cell Technologies) containing monoclonal antibodies against CD2, CD3, CD8, CD19, CD56, CD66b and CD235a. Immature APCs were subsequently purified to >97% purity via negative selection using an EasySep Human Monocyte Enrichment Kit without CD16 depletion containing monoclonal antibodies against CD2, CD3, CD19, CD20, CD56, CD66b, CD123 and CD235a.
Tumor cells were resuspended in PBS with 0.1% fetal bovine serum (FBS) at 1 to 10×10^6 cells/mL. Cells were subsequently incubated with 2 μM CFSE to yield a final concentration of 1 μM. […]
2×10^5 APCs were incubated with or without 6.5×10^5 autologous or allogeneic CFSE-labeled tumor cells in 96-well plates (Corning) containing IMDM medium (Gibco) supplemented with 10% fetal bovine serum, 100 U/mL penicillin, 100 μg/mL streptomycin, 2 mM L-glutamine, sodium pyruvate, non-essential amino acids, 50 μM 2-ME and, where indicated, various concentrations of anti-tumor antibody and the indicated adjuvants. Cells and cell-free supernatants were analyzed after 18 hours via flow cytometry. […]

B1: Nivolumab IgG1 immunoconjugate (conjugate, chains of the INN, looked up)
VH: QVQLVESGGGVVQPGRSLRLDCKASGITFSNSGMHWVRQAPGKGLEWVAVIWYDGSKRYYADSVKGRFTISRDNSKNTLFLQMNSLRAEDTAVYYCATNDDYWGQGTLVTVSS
VL: EIVLTQSPATLSLSPGERATLSCRASQSVSSYLAWYQQKPGQAPRLLIYDASNRATGIPARFSGSGSGTDFTLTISSLEPEDFAVYYCQQSSNWPRTFGQGTKVEIK
modifications: IgG1 adjuvant immunoconjugate
Question: With B1 as the molecule, how does the “APC / myeloid / dendritic cell activation (overall)” value read?
Answer: Its value is “very potent”.
